This is an account of results in patent US20250059295A1 (AstraZeneca / MedImmune, published 2025).

For assay [1], the target named is T1, six transmembrane epithelial antigen of prostate-2 (STEAP2) (human, UniProt Q8NFT2 1-490).
T1 construct: whole, on cells
T1 sequence (looked up): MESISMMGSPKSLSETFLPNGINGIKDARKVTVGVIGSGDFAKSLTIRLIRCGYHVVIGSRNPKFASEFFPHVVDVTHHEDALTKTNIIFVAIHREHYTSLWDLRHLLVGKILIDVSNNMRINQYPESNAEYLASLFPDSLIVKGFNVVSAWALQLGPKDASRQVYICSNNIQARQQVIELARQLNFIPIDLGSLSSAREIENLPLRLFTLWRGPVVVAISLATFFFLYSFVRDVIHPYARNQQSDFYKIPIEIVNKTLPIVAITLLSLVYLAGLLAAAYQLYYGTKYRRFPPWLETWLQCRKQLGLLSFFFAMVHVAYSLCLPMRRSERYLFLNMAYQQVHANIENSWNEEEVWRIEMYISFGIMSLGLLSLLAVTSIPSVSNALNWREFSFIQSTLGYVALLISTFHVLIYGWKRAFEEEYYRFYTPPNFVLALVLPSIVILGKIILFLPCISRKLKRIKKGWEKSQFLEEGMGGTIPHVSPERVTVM
Kind of assay: flow cytometry on C4-2 cells expressing STEAP2. As to the method:
(§1) Cell based binding assays were performed on BD FACSymphony™ A5 Cell Analyzer. To determine binding affinity of AZD6621, C4-2 cells and Jurkat (TCR neg) CD8ab+ cells expressing Steap2 and CD8ab respectively were used for the assay. The cells were harvested and resuspended in FACS buffer (DPBS-1X, 2% FBS, & 5 mM EDTA) at 2×10e6 cells/ml. Cells were seeded in U-bottom Tissue Culture treated 96 Well-plate at 50 ul/well making the cell number at 100,000 per well. The test articles (AZD6621) titration were prepared (2×) using FACS buffer with the starting working concentration of 600 nM and with 1:4 dilution up to 8 titration points. Cells (50 ul/well) were then combined with primary antibody (50 ul/well) titration and incubated at 4° C. for 1 hour. After incubation, the cells were washed 2× using 200 ul of FACS buffer and resuspended with freshly prepared FACS buffer (100 ul/well) containing secondary antibody (Anti-H+L: Goat anti-Human IgG (H+L) Cross-Adsorbed Secondary Antibody, Alexa Fluor 647 (Invitrogen #A-21445) at 1:400 dilution) & DAPI (Live/Dead stain). The secondary antibody was incubated at 4° C. for 1 hour. […] The data was analyzed with FlowJo v 10.6.1. The target receptor binding was determined using geometric mean calculation on FlowJo software detecting the positive APC signal in each well. […]
A general note: In flow cytometry, cells or beads pass a laser one at a time.

The target in assay [2] is T2, CD8 (cluster of differentiation 8), CD8ab (UniProt P01732 22-235; P10966 22-210).
T2 construct: whole, on cells; The method names Jurkat (TCR neg) CD8ab+ cells
T2 sequence (P01732 22-235, chain 1 of 2): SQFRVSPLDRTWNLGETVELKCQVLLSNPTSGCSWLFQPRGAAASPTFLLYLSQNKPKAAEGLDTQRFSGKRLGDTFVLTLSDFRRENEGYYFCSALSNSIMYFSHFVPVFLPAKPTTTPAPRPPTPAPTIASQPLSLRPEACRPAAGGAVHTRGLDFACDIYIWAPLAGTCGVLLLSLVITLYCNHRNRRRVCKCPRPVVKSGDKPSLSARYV
T2 sequence (P10966 22-210, chain 2 of 2): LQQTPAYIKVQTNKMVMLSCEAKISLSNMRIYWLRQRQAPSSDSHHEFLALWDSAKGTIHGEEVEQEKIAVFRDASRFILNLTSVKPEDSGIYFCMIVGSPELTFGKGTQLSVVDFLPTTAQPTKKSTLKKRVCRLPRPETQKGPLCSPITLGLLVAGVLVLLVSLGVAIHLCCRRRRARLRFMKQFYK
Briefly: flow cytometry on cells carrying CD8. As to the method: as §1

B1: 40A3LO12-TED4-K17/E75 (other)
heavy 1: QVQLQQSGPGLVKPSQTLSLTCAISGDSVSRNSAVWNWIRQSPSRGLEWLGRTYYRSKWYNDYAVSVKSRITINPDTSKNQFSLQLNSVTPEDTAVYYCARGLRQNQFYYYMDVWGKGTTVTVSSASTKGPSVFPLAPSSKSTSGGTAALGCLVKDYFPEPVTVSWNSGALTSGVHTFPAVLQSSGLYSLKSVVTVPSSSLGTQTYICNVNHKPSNTKVDKRVEPKSCDGGGGSGGGGSEVQLVESGGALVKPGGSLRLSCAASGFTFTEAWMHWVRQAPGKQLEWVAQIKDRSQTYATYYAESVKGRFTISRDDSKNTLYLQMNSLKTEDTAVYYCRGVYYANAPFDYWGQGTLVTVSSASTKGPSVCPLAPSSKSTSGGTADLGCLVKDYFPEPVTVSWNSGALTSGVHTFPAVLQSSGLYSLSSVVTVPSSSLGTQTYICNVNHKPSNTKVDKRVEPKSVDKTHTCPPCPAPPVAGPSVFLFPPKPKDTLMISRTPEVTCVVVDVKHEDPEVKFNWYVDGVEVHNAKTKPREEQYNSTYRVVSVLTVLHQDWLNGKEYKCKVSNKALPAPIEKTISKAKGQPREPQVYTLPPCREEMTKNQVSLWCLVKGFYPSDIAVEWESNGQPENNYKTTPPVLDSDGSFFLYSKLTVDKSRWQQGNVFSCSVMHEALHNHYTQKSLSLSPGK
light 1: not shown
heavy 2: EVQLLESGGGLVQPGGSLRLSCAASGFTFDDYAIGWFRQAPGKEREGVSCIRVSDGSTYYADSVKGRFTISRDNSKNTLYLQMNSLRAEDTAVYYCAAGSLYTCVQSIVWPARPYYDMDYWGQGTLVTVSSGGGGSGGGGSQVQLQQSGPGLVKPSQTLSLTCAISGDSVSRNSAVWNWIRQSPSRGLEWLGRTYYRSKWYNDYAVSVKSRITINPDTSKNQFSLQLNSVTPEDTAVYYCARGLRQNQFYYYMDVWGKGTTVTVSSASTKGPSVFPLAPSSKSTSGGTAALGCLVKDYFPEPVTVSWNSGALTSGVHTFPAVLQSSGLYSLKSVVTVPSSSLGTQTYICNVNHKPSNTKVDKRVEPKSCDKTHTCPPCPAPPVAGPSVFLFPPKPKDTLMISRTPEVTCVVVDVKHEDPEVKFNWYVDGVEVHNAKTKPREEQYNSTYRVVSVLTVLHQDWLNGKEYKCKVSNKALPAPIEKTISKAKGQPREPQVCTLPPSREEMTKNQVSLSCAVKGFYPSDIAVEWESNGQPENNYKTTPPVLDSDGSFFLVSKLTVDKSRWQQGNVFSCSVMHEALHNHYTQKSLSLSPGK
light 2: DIVMTQSPLSLPVTPGEPASISCRSSQSLVHNTGNTYLSWYLQKPGQSPQSLIYKVSNRASGVPDRFSGSGSGTDFTLKISRVEAEDVGVYYCGQGTQAPFTFGSGTKVEIKGQPKAAPSVRLFPPCSEELQANKATLVCLISDFYPGAVTVAWKADSSPVKAGVETTTPSKQSNNKYAASSYLSLTPEQWKSHRSYSCQVTHEGSTVEKTVAPTEVS
notes: also called TED4 LO12
B1: the binding result in assay [1] and in assay [2] was “binds” each time.
